What was measured:
Test in all cases: ITC
[1] = target: purified OsHIPP21-HMA (rice)
[2] = target: purified OsHPP11-HMA (rice)
[3] = target: purified OsHPP10-HMA (rice)
[4] = target: purified OsHPP09-HMA (rice)

Substance: recombinant AVR-Pia (from UniProt B9WZW9 1-85) (natural protein)
- Kd [1]: 1290 nM
- Kd [2]: 772 nM
- Kd [3]: 5260 nM
- Kd [4]: 115 nM

— article doi:10.1101/2025.07.11.664054
